Laboratory results: patent publication US20140213531A1 (POLYPHOR, published 2014)
Bridges are numbered along the chain shown (N, C = ends). Primed or numbered codes have the meaning given here. [ ]: non-standard residue; d: D form. Pro(4NHCOPhe)″ = 4-benzamido-L-proline, (2S)-4-benzoylamino-pyrrolidine-2-carboxylic acid; Gly(octyl) = CCCCCCCC[C@H](N)C(=O)O; Pro(4NHCOPhe) = not defined here; Cha = N[C@@H](CC1CCCCC1)C(=O)O; Nle = CCCC[C@H](N)C(=O)O

Columns and labels:
Test in all cases: enzyme inhibition, pNA substrate
[1] = molecular target: Thrombin, from Human Plasma, high activity (human, UniProt P00734 328-622)
Chymase, from human skin = molecular target: T1, Chymase, from human skin (human, UniProt P23946 22-247)
T1 construct: purified natural enzyme, bought
T1 sequence (looked up): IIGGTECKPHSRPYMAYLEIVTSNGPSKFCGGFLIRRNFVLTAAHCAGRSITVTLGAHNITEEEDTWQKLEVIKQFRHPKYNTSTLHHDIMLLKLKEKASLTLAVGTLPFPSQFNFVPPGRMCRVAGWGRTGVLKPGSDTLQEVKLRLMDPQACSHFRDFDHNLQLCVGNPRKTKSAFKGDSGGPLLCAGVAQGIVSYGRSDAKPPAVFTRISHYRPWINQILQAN

[2] = molecular target: T2, Urokinase from human urine (human, UniProt P00749 21-431, limits assumed)
T2 construct: purified natural enzyme, bought

[3] = molecular target: T3, Tryptase, from human lung (human, UniProt Q15661 31-275, limits assumed)
T3 construct: purified natural enzyme, bought

[4] = molecular target: T4, Coagulation Factor Xa, from uman plasma (human, UniProt P00742 41-179; P00742 235-488, limits assumed)
T4 construct: purified natural enzyme, bought; also called FXa

[5] = molecular target: T5, Trypsin, Iodination grade, from human pancreas (human, UniProt P07477 24-247)
T5 construct: purified natural enzyme, bought

[6] = molecular target: T6, CathepsinG, from human neutrophils (human, UniProt P08311 21-244)
T6 construct: purified natural enzyme, bought
T6 sequence (looked up): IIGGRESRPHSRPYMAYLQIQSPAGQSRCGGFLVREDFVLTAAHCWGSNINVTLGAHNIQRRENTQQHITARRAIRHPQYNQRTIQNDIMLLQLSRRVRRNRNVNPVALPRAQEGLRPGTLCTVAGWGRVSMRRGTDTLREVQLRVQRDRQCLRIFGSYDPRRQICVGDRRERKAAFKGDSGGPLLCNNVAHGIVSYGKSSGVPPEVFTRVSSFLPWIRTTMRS

[7] = molecular target: T7, Chymotrypsin, from human pancreas (human, UniProt P17538 19-263)
T7 construct: purified natural enzyme, bought
T7 sequence (P17538 19-263): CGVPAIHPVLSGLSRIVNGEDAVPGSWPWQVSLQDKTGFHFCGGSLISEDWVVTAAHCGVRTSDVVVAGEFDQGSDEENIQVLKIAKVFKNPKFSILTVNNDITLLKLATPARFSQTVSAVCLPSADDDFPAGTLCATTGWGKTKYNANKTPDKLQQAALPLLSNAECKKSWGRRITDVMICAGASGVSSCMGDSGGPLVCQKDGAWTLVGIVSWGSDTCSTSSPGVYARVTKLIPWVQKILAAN

T4 sequence (P00742 41-179 limits assumed, chain 1 of 2): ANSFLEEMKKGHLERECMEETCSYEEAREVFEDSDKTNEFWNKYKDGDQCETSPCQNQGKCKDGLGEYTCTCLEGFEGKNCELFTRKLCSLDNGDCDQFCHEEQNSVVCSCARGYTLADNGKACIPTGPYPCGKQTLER
T4 sequence (P00742 235-488 limits assumed, chain 2 of 2): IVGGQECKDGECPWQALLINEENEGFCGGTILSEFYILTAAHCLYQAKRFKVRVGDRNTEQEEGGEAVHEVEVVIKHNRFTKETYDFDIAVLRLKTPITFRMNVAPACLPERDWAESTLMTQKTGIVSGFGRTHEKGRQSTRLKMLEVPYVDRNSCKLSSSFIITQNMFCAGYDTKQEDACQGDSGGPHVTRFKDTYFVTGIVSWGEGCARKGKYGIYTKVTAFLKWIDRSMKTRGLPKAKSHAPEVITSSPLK
T3 sequence (Q15661 31-275 limits assumed): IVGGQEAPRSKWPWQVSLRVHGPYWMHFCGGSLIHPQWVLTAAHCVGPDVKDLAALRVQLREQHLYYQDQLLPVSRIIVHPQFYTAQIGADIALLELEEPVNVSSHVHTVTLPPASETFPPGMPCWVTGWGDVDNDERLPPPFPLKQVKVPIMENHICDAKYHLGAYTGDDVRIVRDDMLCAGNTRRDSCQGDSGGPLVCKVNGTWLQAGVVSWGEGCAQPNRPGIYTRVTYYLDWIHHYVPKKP

B1: Example 99 (peptide)
peptide: XCTASIPPQCY
HELM: PEPTIDE1{[CCCCCC[C@H](N[*:1])C(=O)[*:2]].C.T.A.S.I.P.P.Q.C.Y.[dP].P}$PEPTIDE1,PEPTIDE1,2:R3-10:R3|PEPTIDE1,PEPTIDE1,1:R1-13:R2$$$V2.0
SMILES: CCCCCC[C@@H]1NC(=O)[C@@H]2CCCN2C(=O)[C@H]2CCCN2C(=O)[C@H](Cc2ccc(O)cc2)NC(=O)[C@@H]2CSSC[C@H](NC1=O)C(=O)N[C@@H]([C@@H](C)O)C(=O)N[C@@H](C)C(=O)N[C@@H](CO)C(=O)N[C@@H]([C@@H](C)CC)C(=O)N1CCC[C@H]1C(=O)N1CCC[C@H]1C(=O)N[C@@H](CCC(N)=O)C(=O)N2
notes: also called Ex. 99
% inhibition at 100 µM [1]: 0%
% inhibition at 100 µM (Chymase, from human skin): 0%
% inhibition at 100 µM [2]: 17.4%
% inhibition at 100 µM [3]: 0%
% inhibition at 100 µM [4]: 0%
% inhibition at 100 µM [5]: 30.5%

B2: Example 86 (peptide)
peptide: cyclo([Nle]CAASIPPQCY[dP]P)
modifications: disulfide 2-10
notes: also called Ex. 86
% inhibition at 100 µM [6]: 47%
% inhibition at 100 µM [1]: 10.7%
% inhibition at 100 µM (Chymase, from human skin): 0%
% inhibition at 100 µM [3]: 0%
% inhibition at 100 µM [4]: 24.8%
% inhibition at 100 µM [5]: 0%

B3: Example 91 (peptide)
peptide: XCTASIPPQCQ
HELM: PEPTIDE1{[Nle].C.T.A.S.I.P.P.Q.C.Q.[dP].P}$PEPTIDE1,PEPTIDE1,2:R3-10:R3|PEPTIDE1,PEPTIDE1,1:R1-13:R2$$$V2.0
SMILES: CCCC[C@@H]1NC(=O)[C@@H]2CCCN2C(=O)[C@H]2CCCN2C(=O)[C@H](CCC(N)=O)NC(=O)[C@@H]2CSSC[C@H](NC1=O)C(=O)N[C@@H]([C@@H](C)O)C(=O)N[C@@H](C)C(=O)N[C@@H](CO)C(=O)N[C@@H]([C@@H](C)CC)C(=O)N1CCC[C@H]1C(=O)N1CCC[C@H]1C(=O)N[C@@H](CCC(N)=O)C(=O)N2
notes: also called Ex. 91
% inhibition at 100 µM [6]: 45%
% inhibition at 100 µM [1]: 13.5%
% inhibition at 100 µM [4]: 19.4%
% inhibition at 100 µM [5]: 0%

B4: Example 146 (peptide)
peptide: XCTASIPPQCF
HELM: PEPTIDE1{[O=C([C@H](CCc1ccccc1)N[*:1])[*:2]].C.T.A.S.I.P.P.Q.C.F.[dP].P}$PEPTIDE1,PEPTIDE1,2:R3-10:R3|PEPTIDE1,PEPTIDE1,1:R1-13:R2$$$V2.0
SMILES: CC[C@H](C)[C@@H]1NC(=O)[C@H](CO)NC(=O)[C@H](C)NC(=O)[C@H]([C@@H](C)O)NC(=O)[C@@H]2CSSC[C@H](NC(=O)[C@H](CCC(N)=O)NC(=O)[C@@H]3CCCN3C(=O)[C@@H]3CCCN3C1=O)C(=O)N[C@@H](Cc1ccccc1)C(=O)N1CCC[C@@H]1C(=O)N1CCC[C@H]1C(=O)N[C@@H](CCc1ccccc1)C(=O)N2
% inhibition at 100 µM [1]: 11%
% inhibition at 100 µM (Chymase, from human skin): 0%
% inhibition at 100 µM [2]: 0%
% inhibition at 100 µM [7]: 87%
% inhibition at 100 µM [3]: 22%

B5: Example 154 (peptide)
peptide: XQTASIPPQTY
HELM: PEPTIDE1{[CCCCCCCC[C@H](N[*:1])C(=O)[*:2]].Q.T.A.S.I.P.P.Q.T.Y.[dP].P}$PEPTIDE1,PEPTIDE1,1:R1-13:R2$$$V2.0
SMILES: CCCCCCCC[C@@H]1NC(=O)[C@@H]2CCCN2C(=O)[C@H]2CCCN2C(=O)[C@H](Cc2ccc(O)cc2)NC(=O)[C@H]([C@@H](C)O)NC(=O)[C@H](CCC(N)=O)NC(=O)[C@@H]2CCCN2C(=O)[C@@H]2CCCN2C(=O)[C@H]([C@@H](C)CC)NC(=O)[C@H](CO)NC(=O)[C@H](C)NC(=O)[C@H]([C@@H](C)O)NC(=O)[C@H](CCC(N)=O)NC1=O
% inhibition at 100 µM [6]: 27%
% inhibition at 100 µM (Chymase, from human skin): 0%
% inhibition at 100 µM [3]: 15%
% inhibition at 100 µM [4]: 0%
% inhibition at 100 µM [5]: 0%

B6: Example 156 (peptide)
peptide: cyclo([Gly(octyl)]ETASIPPQKY[dP]P)
notes: also called Ex. 156
% inhibition at 100 µM [6]: 46%
% inhibition at 100 µM [1]: 17%
% inhibition at 100 µM (Chymase, from human skin): 0%
% inhibition at 100 µM [3]: 15%
% inhibition at 100 µM [4]: 0%
% inhibition at 100 µM [5]: 0%

B7: Example 136 (peptide)
peptide: XCTASIPPQCX
HELM: PEPTIDE1{[Nle].C.T.A.S.I.P.P.Q.C.[Phg].[dP].P}$PEPTIDE1,PEPTIDE1,2:R3-10:R3|PEPTIDE1,PEPTIDE1,1:R1-13:R2$$$V2.0
SMILES: CCCC[C@@H]1NC(=O)[C@@H]2CCCN2C(=O)[C@H]2CCCN2C(=O)[C@H](c2ccccc2)NC(=O)[C@@H]2CSSC[C@H](NC1=O)C(=O)N[C@@H]([C@@H](C)O)C(=O)N[C@@H](C)C(=O)N[C@@H](CO)C(=O)N[C@@H]([C@@H](C)CC)C(=O)N1CCC[C@H]1C(=O)N1CCC[C@H]1C(=O)N[C@@H](CCC(N)=O)C(=O)N2
notes: also called Ex. 136
% inhibition at 100 µM (Chymase, from human skin): 0%
% inhibition at 100 µM [2]: 0%
% inhibition at 100 µM [7]: 67.9%
% inhibition at 100 µM [3]: 0%
% inhibition at 100 µM [4]: 0%
% inhibition at 100 µM [5]: 0%

B8: Example 138 (peptide)
peptide: cyclo([Nle]CTASIP[Pro(4NHCOPhe)″]QCY[dP]P)
modifications: disulfide 2-10
% inhibition at 100 µM [1]: 17.1%
% inhibition at 100 µM [2]: 14.4%
% inhibition at 100 µM [7]: 77.1%
% inhibition at 100 µM [3]: 0%
% inhibition at 100 µM [4]: 12.6%
% inhibition at 100 µM [5]: 12.2%

B9: Example 140 (peptide)
peptide: XCTASXPPQCY
HELM: PEPTIDE1{[Nle].C.T.A.S.[O=C([C@@H](N[*:1])C1CCCCC1)[*:2]].P.P.Q.C.Y.[dP].P}$PEPTIDE1,PEPTIDE1,2:R3-10:R3|PEPTIDE1,PEPTIDE1,1:R1-13:R2$$$V2.0
SMILES: CCCC[C@@H]1NC(=O)[C@@H]2CCCN2C(=O)[C@H]2CCCN2C(=O)[C@H](Cc2ccc(O)cc2)NC(=O)[C@@H]2CSSC[C@H](NC1=O)C(=O)N[C@@H]([C@@H](C)O)C(=O)N[C@@H](C)C(=O)N[C@@H](CO)C(=O)N[C@@H](C1CCCCC1)C(=O)N1CCC[C@H]1C(=O)N1CCC[C@H]1C(=O)N[C@@H](CCC(N)=O)C(=O)N2
notes: also called Ex. 140
% inhibition at 100 µM [1]: 20.6%
% inhibition at 100 µM (Chymase, from human skin): 0%
% inhibition at 100 µM [2]: 10.4%
% inhibition at 100 µM [7]: 79.6%
% inhibition at 100 µM [4]: 13.3%
% inhibition at 100 µM [5]: 10.8%

B10: Example 169 (peptide)
peptide: XCTASXPPQCY
HELM: PEPTIDE1{[Nle].C.T.A.S.[CCCCCCCC[C@H](N[*:1])C(=O)[*:2]].P.P.Q.C.Y.[dP].Q}$PEPTIDE1,PEPTIDE1,2:R3-10:R3|PEPTIDE1,PEPTIDE1,1:R1-13:R2$$$V2.0
SMILES: CCCCCCCC[C@@H]1NC(=O)[C@H](CO)NC(=O)[C@H](C)NC(=O)[C@H]([C@@H](C)O)NC(=O)[C@@H]2CSSC[C@H](NC(=O)[C@H](CCC(N)=O)NC(=O)[C@@H]3CCCN3C(=O)[C@@H]3CCCN3C1=O)C(=O)N[C@@H](Cc1ccc(O)cc1)C(=O)N1CCC[C@@H]1C(=O)N[C@@H](CCC(N)=O)C(=O)N[C@@H](CCCC)C(=O)N2
notes: also called Ex. 169
% inhibition at 100 µM [1]: 20.6%
% inhibition at 100 µM (Chymase, from human skin): 0%
% inhibition at 100 µM [2]: 10.4%
% inhibition at 100 µM [7]: 79.6%
% inhibition at 100 µM [4]: 13.3%
% inhibition at 100 µM [5]: 10.8%

B11: Example 167 (peptide)
peptide: XCTASIPPQCY
HELM: PEPTIDE1{[Nle].C.T.A.S.I.P.P.Q.C.Y.[dP].F}$PEPTIDE1,PEPTIDE1,2:R3-10:R3|PEPTIDE1,PEPTIDE1,1:R1-13:R2$$$V2.0
SMILES: CCCC[C@@H]1NC(=O)[C@H](Cc2ccccc2)NC(=O)[C@H]2CCCN2C(=O)[C@H](Cc2ccc(O)cc2)NC(=O)[C@@H]2CSSC[C@H](NC1=O)C(=O)N[C@@H]([C@@H](C)O)C(=O)N[C@@H](C)C(=O)N[C@@H](CO)C(=O)N[C@@H]([C@@H](C)CC)C(=O)N1CCC[C@H]1C(=O)N1CCC[C@H]1C(=O)N[C@@H](CCC(N)=O)C(=O)N2
notes: also called Ex. 167
% inhibition at 100 µM [1]: 0%
% inhibition at 100 µM [2]: 11.1%
% inhibition at 100 µM [7]: 60.2%
% inhibition at 100 µM [4]: 19.6%
% inhibition at 100 µM [5]: 19%

B12: Example 176 (peptide)
peptide: cyclo([Nle]CTAS[Cha]P[Pro(4NHCOPhe)]QCQ[dQ]Q)
modifications: disulfide 2-10; reading uncertain
notes: also called Ex. 176
% inhibition at 100 µM [6]: 69%
% inhibition at 100 µM [1]: 15%
% inhibition at 100 µM [7]: 55%
% inhibition at 100 µM [3]: 17%
